The target of test [1] is T1, Recombinant MSLN Fc fusion protein (R&D: 3265-MS) (UniProt Q13421 296-580).
T1 construct: also called recombinant MSLN fusion protein
The test is described as follows: SPR; reference v31805.

For test [2], the target named is T2, Recombinant CD3epsilon/delta Fc fusion protein (Sino Biological) (UniProt P07766 23-126; P04234 22-105).
T2 construct: also called recombinant CD3 fusion protein
The test is described as follows: SPR; reference v31805. A general note: Surface plasmon resonance follows binding to a sensor surface in real time, without labels.

Test [3] has as its target T3, mesothelin (MSLN) on MSLN-expressing tumor cells (human, UniProt Q13421 296-598). The test is described as follows: cell-based or functional assay.
Test [4] has as its target T4, CD3 on CD3+ Jurkat cells and primary human T cells (human, UniProt P07766 23-207).
T4 construct: whole, on cells; also called native CD3; CD3ε
In words: flow cytometry on primary human T cells; reference v29191. (In general: A flow cytometer gives signals particle by particle.)

Test [5] concerns the target T4, CD3 on CD3+ Jurkat cells and primary …. In words: flow cytometry on primary human T cells; reference v31805.
Test [6] deals with T3, mesothelin (MSLN) on MSLN-expressing …. The test is described as follows: whole-cell flow cytometry on OVCAR-3 cells, apparent affinity.
Test [7] concerns the target T1, Recombinant MSLN Fc fusion protein …. The test is described as follows: SPR, BioRad ProteOn XPR36, 25 C, MSLN-Fc captured on anti-Fc chip.
The target is the same in test [8]. In words: assay not given; matches Table 15 (SPR); reference v31805.
Test [9] has as its target T2, Recombinant CD3epsilon/delta Fc fusion …. Described as above.
Test [10] deals with T4, CD3 on CD3+ Jurkat cells and primary …. In words: whole-cell flow cytometry on primary human T cells, apparent affinity.
The target of test [11] is T2, Recombinant CD3epsilon/delta Fc fusion …. In words: SPR, BioRad ProteOn XPR36, 25 C, CD3 epsilon/delta-Fc captured on anti-Fc chip.
For test [12], the target named is T3, mesothelin (MSLN) on MSLN-expressing …. In words: flow cytometry on MSLN+ OVCAR-3 cells (Alexa Fluor 647 anti-IgG-Fc, MFI).
The target in test [13] is T4, CD3 on CD3+ Jurkat cells and primary …. The test is described as follows: flow cytometry on human pan T cells, CD4+ gate (Alexa Fluor 647 anti-IgG-Fc, MFI).
For test [14] the target is unchanged. The test is described as follows: flow cytometry on human pan T cells, CD8+ gate (Alexa Fluor 647 anti-IgG-Fc, MFI).
For test [15] the target is unchanged. In words: flow cytometry on human pan T cells, CD4+ and CD8+ cells together (Alexa Fluor 647 anti-IgG-Fc, MFI).
Test [16] has as its target T3, mesothelin (MSLN) on MSLN-expressing …. In words: cell-based or functional assay. The source holds these as a separate data set.
The target of test [17] is MSLN (form in the assay not stated) (UniProt Q13421 296-580). In words: method and antigen form not stated in Table 12.
For test [18], the target named is T3, mesothelin (MSLN) on MSLN-expressing …. In words: assay not given; matches Table 16 (OVCAR-3 cells); reference v32523.

T1 sequence (Q13421 other isoform, or with tags, fused parts or gaps limits assumed): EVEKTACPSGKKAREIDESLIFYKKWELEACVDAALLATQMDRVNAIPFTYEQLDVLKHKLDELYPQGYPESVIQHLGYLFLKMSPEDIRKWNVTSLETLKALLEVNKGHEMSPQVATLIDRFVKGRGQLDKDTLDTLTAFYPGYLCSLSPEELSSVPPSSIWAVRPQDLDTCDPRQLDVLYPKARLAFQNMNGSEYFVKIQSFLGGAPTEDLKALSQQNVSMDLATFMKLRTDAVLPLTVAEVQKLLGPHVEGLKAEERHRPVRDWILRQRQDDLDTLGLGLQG
T4 sequence (P07766 23-207): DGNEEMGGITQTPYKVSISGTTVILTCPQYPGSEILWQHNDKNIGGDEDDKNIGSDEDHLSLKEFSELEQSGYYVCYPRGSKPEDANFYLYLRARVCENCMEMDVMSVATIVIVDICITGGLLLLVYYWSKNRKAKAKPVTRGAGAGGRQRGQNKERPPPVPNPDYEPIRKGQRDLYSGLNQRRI
T2 sequence (P07766 23-126, stated change not applied, chain 1 of 2): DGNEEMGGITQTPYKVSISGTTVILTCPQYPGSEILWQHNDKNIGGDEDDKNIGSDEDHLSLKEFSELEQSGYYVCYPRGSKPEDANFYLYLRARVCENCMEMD
T2 sequence (P04234 22-105, stated change not applied, chain 2 of 2): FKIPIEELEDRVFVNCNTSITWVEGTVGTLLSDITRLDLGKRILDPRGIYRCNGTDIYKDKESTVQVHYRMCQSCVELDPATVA
T3 sequence (Q13421 other isoform, or with tags, fused parts or gaps limits assumed): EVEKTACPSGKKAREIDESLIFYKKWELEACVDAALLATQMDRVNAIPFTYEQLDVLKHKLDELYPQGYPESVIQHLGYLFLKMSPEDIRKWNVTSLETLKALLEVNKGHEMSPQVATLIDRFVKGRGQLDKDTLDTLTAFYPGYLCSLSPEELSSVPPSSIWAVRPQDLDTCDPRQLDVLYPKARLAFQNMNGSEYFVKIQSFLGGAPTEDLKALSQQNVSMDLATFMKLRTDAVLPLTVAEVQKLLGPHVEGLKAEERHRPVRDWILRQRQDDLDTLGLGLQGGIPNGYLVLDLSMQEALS

B1: v32523, trivalent and bispecific antibody construct [MSLN (2 scFv) x CD3 (1 Fab)] (bispecific antibody, human IgG1, lambda, L234A L235A)
heavy 1: not shown
heavy 2: DIQMTQSPSSLSASVGDRVTITCSASSSVSYMHWYQQKSGKAPKLLIYDTSKLASGVPSRFSGSGSGTDFTLTISSLQPEDFATYYCQQWSGYPLTFGQGTKLEIKGGGGSGGGGSGGGGSGGGGSQVQLVQSGAEVKKPGASVKVSCKASGYSFTGYTMNWVRQAPGQGLEWMGLITPYNGASSYNQKFRGKATMTVDTSTSTVYMELSSLRSEDTAVYYCARGGYDGRGFDYWGQGTLVTVSSAAEPKSSDKTHTCPPCPAPEAAGGPSVFLFPPKPKDTLMISRTPEVTCVVVSVSHEDPEVKFNWYVDGVEVHNAKTKPREEQYNSTYRVVSVLTVLHQDWLNGKEYKCKVSNKALPAPIEKTISKAKGQPREPQVYVLPPSRDELTKNQVSLLCLVKGFYPSDIAVEWESNGQPENNYLTWPPVLDSDGSFFLYSKLTVDKSRWQQGNVFSCSVMHEALHNHYTQKSLSLSPG
light: NFMLTQPHSVSESPGKTVTISCKRNTGNIGSNYVNWYQQHEGSSPTTIIYRNDKRPDGVSDRFSGSIDRSSKSASLTISNLKTEDEADYFCQSYSSGFIFGGGTKLTVLGQPKAAPSVTLFPPSSEELQANKATLVCLISDFYPGAVTVAWKADSSPVKAGVETTTPSKQSNNKYAASSYLSLTPEQWKSHRSYSCQVTHEGSTVEKTVAPTECS
notes: also called construct v32523; stability engineered construct
In general, EC50 refers to the concentration at which the effect is half-maximal. Usually Kd stands for the equilibrium constant for the complex coming apart. For orientation: koff means the rate constant with which the complex falls apart. Broadly, the kon is a measure of how fast the partners come together. One may read the EC50 (read off the curve) as the midpoint of the concentration-response curve. The low end stands for greater potency, the high end for weaker potency. Turning to B1, the “fold lower affinity vs v31805” value in [1] is 32 fold; in test [2], 53 fold; in test [8], ~30 fold; in test [9] it was ~50 fold. Further, the “IC50 of T cell-dependent cytotoxicity on HCT116 cells (pan T cells, E:T 5:1, 72 h)” value in test [3] came out at 0.0011 nM. Besides, the “fold lower apparent affinity vs v29191” value in test [4] is ~2.7 fold. Also, in test [5], the “fold lower apparent affinity vs v31805” value was ~8.6 fold. Besides, the values for the half-maximal effective concentration (EC50) in [6] and in test [10] were 2.8 nM and 50.5 nM, respectively. The Kd in [7] was 1.01 nM; in test [11], 40.1 nM. Moreover, the koff was found to be 0.000719 s⁻¹ in [7] and 0.0112 s⁻¹ in test [11]. The kon in [7] came out at 714000 M⁻¹ s⁻¹; in test [11], 279000 M⁻¹ s⁻¹. In addition, the “EC50 (read off the curve)” value in test [12] is ~3 nM; in test [13] it was ~60 nM; in test [14], ~80 nM; in test [15], ~60 nM.

B2: v29191, 2+1 Fab^3 TCB benchmark construct [MSLN (2 Fab) x CD3 (1 Fab)] (bispecific antibody, human IgG1, kappa, L234A L235A)
heavy 1: not shown
heavy 2: QVQLVQSGAEVKKPGASVKVSCKASGYSFTGYTMNWVRQAPGQGLEWMGLITPYNGASSYNQKFRGKATMTVDTSTSTVYMELSSLRSEDTAVYYCARGGYDGRGFDYWGQGTLVTVSSASTKGPSVFPLAPSSKSTSGGTAALGCLVEDYFPEPVTVSWNSGALTSGVHTFPAVLQSSGLYSLSSVVTVPSSSLGTQTYICNVNHKPSNTKVDEKVEPKSCDKTHTCPPCPAPEAAGGPSVFLFPPKPKDTLMISRTPEVTCVVVDVSHEDPEVKFNWYVDGVEVHNAKTKPREEQYNSTYRVVSVLTVLHQDWLNGKEYKCKVSNKALGAPIEKTISKAKGQPREPQVCTLPPSRDELTKNQVSLSCAVKGFYPSDIAVEWESNGQPENNYKTTPPVLDSDGSFFLVSKLTVDKSRWQQGNVFSCSVMHEALHNHYTQKSLSLSPG
light 1: EVQLLESGGGLVQPGGSLRLSCAASGFTFSTYAMNWVRQAPGKGLEWVSRIRSKYNNYATYYADSVKGRFTISRDDSKNTLYLQMNSLRAEDTAVYYCVRHGNFGNSYVSWFAYWGQGTLVTVSSASVAAPSVFIFPPSDEQLKSGTASVVCLLNNFYPREAKVQWKVDNALQSGNSQESVTEQDSKDSTYSLSSTLTLSKADYEKHKVYACEVTHQGLSSPVTKSFNRGEC
light 2: DIQMTQSPSSLSASVGDRVTITCSASSSVSYMHWYQQKSGKAPKLLIYDTSKLASGVPSRFSGSGSGTDFTLTISSLQPEDFATYYCQQWSKHPLTFGQGTKLEIKRTVAAPSVFIFPPSDRKLKSGTASVVCLLNNFYPREAKVQWKVDNALQSGNSQESVTEQDSKDSTYSLSSTLTLSKADYEKHKVYACEVTHQGLSSPVTKSFNRGEC
notes: also called Fab^3 benchmark
Consider B2, for which the “IC50 of T cell-dependent cytotoxicity on OVCAR-3 cells (pan T cells, E:T 5:1, 72 h)” value in test [16] worked out at 0.00089 nM. Further, the “Affinity to MSln” value in test [17] is 0.02 nM. Also, the EC50 is 0.4 nM in [6] and 18.7 nM in [10]. Also, the “fold higher relative affinity vs v32523” value in [18] was found to be 7 fold. Also, the “EC50 (read off the curve)” value in [13] is ~20 nM; in test [14], ~30 nM; in test [15], ~20 nM.

For the origin of these results see patent US20240327516A1 (Zymeworks, published 2024).
